# Experimental data published in paper PMC10397247.
# T1: 4H3855-bN
# T1 chain: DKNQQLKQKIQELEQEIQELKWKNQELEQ
# T2: 4H2618-bN
# T2 chain: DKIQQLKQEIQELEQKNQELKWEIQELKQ
# T3: 4H717-bN
# T3 chain: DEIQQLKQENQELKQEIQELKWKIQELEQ
# T4: 4H338-bN
# T4 chain: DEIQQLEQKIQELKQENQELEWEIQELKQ
# T5: 4H3427-bN
# T5 chain: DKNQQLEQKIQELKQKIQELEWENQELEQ
# T6: 4H3628-bA
# T6 chain: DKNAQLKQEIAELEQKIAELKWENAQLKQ
# T7: 4H918-bN
# T7 chain: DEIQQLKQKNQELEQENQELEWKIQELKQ
# T8: 4H3112-bN
# T8 chain: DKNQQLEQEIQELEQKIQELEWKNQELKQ
# T9: 4H2667-bN
# T9 chain: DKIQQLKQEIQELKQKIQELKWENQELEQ
# T10: 4H908-bN
# T10 chain: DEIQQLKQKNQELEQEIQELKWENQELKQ
# T11: 4H607-bN
# T11 chain: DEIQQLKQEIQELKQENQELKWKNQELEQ
# T12: 4H3354-bN
# T12 chain: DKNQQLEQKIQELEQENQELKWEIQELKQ
# T13: 4H3782-bN
# T13 chain: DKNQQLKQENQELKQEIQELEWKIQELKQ
# T14: 4H967-bN
# T14 chain: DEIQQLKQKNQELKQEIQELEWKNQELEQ
# T15: 4H3185-bN
# T15 chain: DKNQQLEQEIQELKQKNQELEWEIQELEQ
# T16: 4H797-bN
# T16 chain: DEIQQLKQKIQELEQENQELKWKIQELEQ
# T17: 4H2729-bN
# T17 chain: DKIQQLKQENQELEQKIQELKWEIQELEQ
# T18: 4H72-bN
# T18 chain: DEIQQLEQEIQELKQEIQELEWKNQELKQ
# T19: 4H331-bN
# T19 chain: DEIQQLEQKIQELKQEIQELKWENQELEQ
# T20: 4H754-bN
# T20 chain: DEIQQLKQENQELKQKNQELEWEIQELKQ
# T21: 4H454-bN
# T21 chain: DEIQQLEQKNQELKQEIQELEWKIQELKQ
# T22: 4H883-bN
# T22 chain: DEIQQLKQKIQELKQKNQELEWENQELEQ
# T23: 4H953-bN
# T23 chain: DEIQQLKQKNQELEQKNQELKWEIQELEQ
# T24: 4H687-bN
# T24 chain: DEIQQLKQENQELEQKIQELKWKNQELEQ
# T25: 4H4001-bN
# T25 chain: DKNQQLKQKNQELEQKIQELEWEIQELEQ
# T26: 4H568-bN
# T26 chain: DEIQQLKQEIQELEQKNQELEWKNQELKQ
# How the values were obtained:
# Experiment in all cases: two-hybrid library CCNG1;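 also: natural log of median RNA to DNA barcode read ratio; higher means stronger binding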
# 4H3855-bN = biological target: T1, 4H3855-bN
# 4H2618-bN = biological target: T2, 4H2618-bN
# 4H717-bN = biological target: T3, 4H717-bN
# 4H338-bN = biological target: T4, 4H338-bN
# 4H3427-bN = biological target: T5, 4H3427-bN
# 4H3628-bA = biological target: T6, 4H3628-bA
# 4H918-bN = biological target: T7, 4H918-bN
# 4H3112-bN = biological target: T8, 4H3112-bN
# 4H2667-bN = biological target: T9, 4H2667-bN
# 4H908-bN = biological target: T10, 4H908-bN
# 4H607-bN = biological target: T11, 4H607-bN
# 4H3354-bN = biological target: T12, 4H3354-bN
# 4H3782-bN = biological target: T13, 4H3782-bN
# 4H967-bN = biological target: T14, 4H967-bN
# 4H3185-bN = biological target: T15, 4H3185-bN
# 4H797-bN = biological target: T16, 4H797-bN
# 4H2729-bN = biological target: T17, 4H2729-bN
# 4H72-bN = biological target: T18, 4H72-bN
# 4H331-bN = biological target: T19, 4H331-bN
# 4H754-bN = biological target: T20, 4H754-bN
# 4H454-bN = biological target: T21, 4H454-bN
# 4H883-bN = biological target: T22, 4H883-bN
# 4H953-bN = biological target: T23, 4H953-bN
# 4H687-bN = biological target: T24, 4H687-bN
# 4H4001-bN = biological target: T25, 4H4001-bN
# 4H568-bN = biological target: T26, 4H568-bN
binder,measurement,setting,value
DKIQQLKQEIQELEQKNQELKWEIQELKQ [4H2618-bN],interaction score,4H3855-bN,-0.781
same,interaction score,4H2618-bN,0.45
same,interaction score,4H717-bN,-0.442
same,interaction score,4H338-bN,0.959
same,interaction score,4H3427-bN,0.0822
same,interaction score,4H3628-bA,0.00803
same,interaction score,4H918-bN,0.558
same,interaction score,4H3112-bN,-0.924
same,interaction score,4H2667-bN,-0.229
same,interaction score,4H908-bN,-1.09
same,interaction score,4H607-bN,-0.0391
same,interaction score,4H3354-bN,-0.374
same,interaction score,4H3782-bN,-0.594
same,interaction score,4H967-bN,-1.39
same,interaction score,4H3185-bN,0.0545
same,interaction score,4H797-bN,-0.249
same,interaction score,4H2729-bN,1.51
same,interaction score,4H72-bN,-0.128
same,interaction score,4H331-bN,-0.0801
same,interaction score,4H754-bN,-0.67
same,interaction score,4H454-bN,0.067
same,interaction score,4H883-bN,0.595
same,interaction score,4H953-bN,-1.12
same,interaction score,4H687-bN,-0.758
same,interaction score,4H4001-bN,-0.538
same,interaction score,4H568-bN,-1.88
